Data: patent US5362852A, “Modified peptide derivatives conjugated at 2-hydroxyethylamine moieties” (Pfizer Inc., priority 1991, dated 1994)
One block for each molecule: values may come before it.

Tests used:
human CRF receptor = molecular target: T1, human CRF receptor (Homo sapiens, UniProt P34998); assay: ability to bind to the human CRF receptor (prepared from cultured SK-N-SH cells); assay type: binding; details: products dissolved in 0.05M sodium phosphate, pH 7.0
T1 construct: human CRF receptor (prepared from cultured SK-N-SH cells); endogenous in cells; host or cells: SK-N-SH cells (human neuroblastoma), receptor preparation
T1 sequence (P34998 24-415): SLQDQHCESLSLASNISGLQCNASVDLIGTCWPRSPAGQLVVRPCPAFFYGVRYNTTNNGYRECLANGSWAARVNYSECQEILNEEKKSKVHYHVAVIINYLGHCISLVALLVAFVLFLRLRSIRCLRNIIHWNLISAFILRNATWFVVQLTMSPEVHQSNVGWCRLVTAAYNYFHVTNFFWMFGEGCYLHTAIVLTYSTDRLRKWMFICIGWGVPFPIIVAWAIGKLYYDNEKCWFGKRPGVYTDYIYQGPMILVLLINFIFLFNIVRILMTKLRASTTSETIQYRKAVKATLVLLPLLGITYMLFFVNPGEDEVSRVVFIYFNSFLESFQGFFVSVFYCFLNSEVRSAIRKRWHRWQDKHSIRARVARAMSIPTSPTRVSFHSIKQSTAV
Protocol: The products were dissolved in 0.05M sodium phosphate, pH 7.0, and tested for their ability to bind to the human CRF receptor (prepared from cultured SK-N-SH cells).

[1] = molecular target: human CRF receptor (human); assay: receptor binding assay on human CRF receptor prepared from cultured SK-N-SH cells

IC50 [1]: 5 nM
B1: N-terminally biotinylated ovine CRF [Met^21 O] (peptide)
peptide: SQEPPISLDLTFHLLREVLEXTKADQLAQQAHSNRKLLDIA
modifications: N-terminal Ser oxidised by periodate to glyoxylyl (=CH-CO-) and coupled as hydrazone to 6-((biotinoyl)amino)caproic acid hydrazide (biotin-X-hydrazide); Met 21 as the sulfoxide (Met^21 O)

IC50 [1]: 5 nM
B2: Lucifer Yellow conjugate of ovine CRF [Met^21 O] (peptide)
peptide: B1 peptide
modifications: N-terminal Ser oxidised by periodate to glyoxylyl (=CH-CO-) and coupled as hydrazone to Lucifer Yellow; Met 21 as the sulfoxide (Met^21 O)

The remaining lines, values behind:

Molecule: CC[C@H](C)[C@H](NC(=O)[C@H](CC(=O)O)NC(=O)[C@H](CC(C)C)NC(=O)[C@H](CC(C)C)NC(=O)[C@H](CCCCN)NC(=O)[C@H](CCCNC(=N)N)NC(=O)[C@H](CC(N)=O)NC(=O)[C@H](CO)NC(=O)[C@H](Cc1c[nH]cn1)NC(=O)[C@H](C)NC(=O)[C@H](CCC(N)=O)NC(=O)[C@H](CCC(N)=O)NC(=O)[C@H](C)NC(=O)[C@H](CC(C)C)NC(=O)[C@H](CCC(N)=O)NC(=O)[C@H](CC(=O)O)NC(=O)[C@H](C)NC(=O)[C@H](CCCCN)NC(=O)[C@@H](NC(=O)[C@H](CC[S+](C)[O-])NC(=O)[C@H](CCC(=O)O)NC(=O)[C@H](CC(C)C)NC(=O)[C@@H](NC(=O)[C@H](CCC(=O)O)NC(=O)[C@H](CCCNC(=N)N)NC(=O)[C@H](CC(C)C)NC(=O)[C@H](CC(C)C)NC(=O)[C@H](Cc1c[nH]cn1)NC(=O)[C@H](Cc1ccccc1)NC(=O)[C@@H](NC(=O)[C@H](CC(C)C)NC(=O)[C@H](CC(=O)O)NC(=O)[C@H](CC(C)C)NC(=O)[C@H](CO)NC(=O)[C@@H](NC(=O)[C@@H]1CCCN1C(=O)[C@@H]1CCCN1C(=O)[C@H](CCC(=O)O)NC(=O)[C@H](CCC(N)=O)NC(=O)[C@@H](N)CO)[C@@H](C)CC)[C@@H](C)O)C(C)C)[C@@H](C)O)C(=O)N[C@@H](C)C(N)=O (stereo partly shown) [CRF [Met^21 O]]
IC50 (human CRF receptor): 5 nM

Molecule: underivatized CRF [Met^21 O]
IC50 [1]: 5 nM
